Data on one molecule can be found in PMC4070910, “Cathepsin S Signals via PAR2 and Generates a Novel Tethered Ligand Receptor Agonist” (PLoS ONE, 2014).

For this experiment, the system named is PAR2M3 (leucine38 and glycine40 to alanines). The experiment can be described thus: Calcium imaging in HeLa cells transfected with PAR2M3. It counts as cell-based, human. The following applies: cathepsin S 2 µM, KVDGTS 100 µM. The procedure:
Human PAR2 cDNA was cloned as an Xho I-Hind III fragment (1206 bp) into pcDNA3.1(−). 10 µg of DNA were diluted into 0.5 ml of DMEM and mixed with 0.5 ml of DMEM containing 10 µl of Lipofectamine 2000 transfection reagent and incubated at room temperature for 20 minutes. HeLa cells were grown to confluence, trypsinized and 1×10^6 cells were pelleted in a 15 ml tube by centrifugation at 1000 rpm for 5 minutes. The DMEM-Lipofectamine 2000-DNA mixture (1 ml) was added to the cell pellet, resuspended gently and incubated at room temperature for 20 minutes. Four ml of complete DMEM with 10% FBS were added to the tube, mixed by inverting the tube several times, plated into a 96-well glass bottom plate at 20,000 cells/well, and placed in a 37°C CO2 incubator. HeLa cells transfected with vector alone or salmon sperm DNA (shown in the figures) were plated as a control. The medium was aspirated two days after transfection. Fura-2 was used as a ratiometric calcium-sensitive indicator as follows. […]
Imaging was performed using a Zeiss Axiovert 200 M microscope platform equipped with a flipping filter wheel for ratiometric imaging. […] The software later analyzed all images taken during each excitation period. Typically, ratiometric changes were measured in 10–20 cells in each image. An average of the fluorescence of the cells in each image was calculated and plotted against time in seconds. […]

“Also recorded” adds a separate entry of the source.

B1: cathepsin S: Recombinant human cathepsin S, cysteine protease, expressed in E.coli, refolded and activated (protein, UniProt P25774 115-331, looked up)
Cathepsin S: LPDSVDWREKGCVTEVKYQGSCGACWAFSAVGALEAQLKLKTGKLVSLSAQNLVDCSTEKYGNKGCNGGFMTTAFQYIIDNKGIDSDASYPYKAMDQKCQYDSKYRAATCSKYTELPYGREDVLKEAVANKGPVSVGVDARHPSFFLYRSGVYYEPSCTQNVNHGVLVVGYGDLNGKEYWLVKNSWGHNFGEEGYIRMARNKGNHCGIASFPSYPEI
With B1, the “calcium response on PAR2M3 (in words)” value is recorded as “did not induce calcium responses; also recorded: not PAR2M2 or PAR2M3”.
